From FireProtDB (doi:10.1016/j.bpc.2006.10.013)

B1: Rubredoxin, P00268 (parent)
chain: MKKYTCTVCGYIYNPEDGDPDNGVNPGTDFKDIPDDWVCPLCGVGKDQFEEVEE
B2: Rubredoxin, P24297 (parent)
chain: MAKWVCKICGYIYDEDAGDPDNGISPGTKFEELPDDWVCPICGAPKSEFEKLED

Experiments:
[1] = variants of: B1; settings: Clostridium pasteurianum, pH 9.08, Thermal, NMR, Sodium borate 100 mM, reversible: Yes, structure 1IRO, whole UniProt chain shown
[2] = variants of: B2; settings: Pyrococcus furiosus (strain ATCC 43587 / DSM 3638 / JCM 8422 / Vc1), pH 9.08, Thermal, NMR, Sodium borate 100 mM, reversible: Yes, structure 1BRF, whole UniProt chain shown

Variant	Tm [1] [°C]	heat capacity change of unfolding [1] [kcal/mol/K]	unfolding enthalpy (van 't Hoff) [1] [kcal/mol]	ddG of mutation (higher = less stable) ([1]; 107 °C) [kcal/mol]	heat capacity change of unfolding ([1]; 107 °C) [kcal/mol/K]	ddG of mutation (higher = less stable) [1] [kcal/mol]	heat capacity change of unfolding ([2]; 133.6 °C) [kcal/mol/K]	Tm [2] [°C]	heat capacity change of unfolding [2] [kcal/mol/K]	unfolding enthalpy (van 't Hoff) [2] [kcal/mol]	ddG of mutation (higher = less stable) ([2]; 133.6 °C) [kcal/mol]
MKKWTCTVCGYIYNPEDGDPDNGINPGTDFKDLPDDWVCPLCGVGKDQFEEVEE [Y4W V24I I33L]	114	0.5	63	–	–	–	–	–	–	–	–
MKKYTCTVCGYIYNPEDGDPDNGVNPGTDFKDLPDDWVCPLCGVGKDQFEEVEE [I33L]	112	0.5	64	-0.76	0.5	-0.76	–	–	–	–	–
MKKYTCTVCGYIYNPEDGDPDNGINPGTDFKDIPDDWVCPLCGVGKDQFEEVEE [V24I]	110	0.5	59	-0.36	0.5	-0.36	–	–	–	–	–
MKKYTCTVCGYIYNPEDGDPDNGINPGTDFKDLPDDWVCPLCGVGKDQFEEVEE [V24I I33L]	115	0.5	65	–	–	-1.31	–	–	–	–	–
MAKWVCKICGYIYDEDAGDPDNGVSPGTKFEELPDDWVCPICGAPKSEFEKLED [I24V]	–	–	–	–	–	–	0.5	136	0.5	74	–
MAKWVCKICGYIYDEDAGDPDNGISPGTKFEEIPDDWVCPICGAPKSEFEKLED [L33I]	–	–	–	–	–	–	0.5	–	–	–	0.88
MAKWVCKICGYIYDEDAGDPDNGVSPGTKFEEIPDDWVCPICGAPKSEFEKLED [I24V L33I]	–	–	–	–	–	–	–	133	0.5	62	–
